One experiment deals with T1, DotN(7–214) (L. pneumophila (Philadelphia-1), UniProt Q5ZYB7 7-214).
T1 sequence: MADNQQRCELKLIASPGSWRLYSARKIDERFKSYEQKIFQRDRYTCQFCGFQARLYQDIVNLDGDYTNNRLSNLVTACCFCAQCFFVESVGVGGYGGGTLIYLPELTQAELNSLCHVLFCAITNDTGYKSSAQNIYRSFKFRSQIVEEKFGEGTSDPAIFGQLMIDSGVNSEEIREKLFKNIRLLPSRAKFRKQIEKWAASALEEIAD
Nature of the experiment: crystal structure.

The next experiment deals with T2, IcmW (L. pneumophila (Philadelphia-1), UniProt Q5ZS31 1-151).
T2 sequence: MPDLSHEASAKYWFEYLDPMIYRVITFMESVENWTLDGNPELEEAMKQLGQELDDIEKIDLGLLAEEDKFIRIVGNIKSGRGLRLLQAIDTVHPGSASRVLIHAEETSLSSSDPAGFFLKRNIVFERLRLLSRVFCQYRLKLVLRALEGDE
Description: crystal structure.

Here are results for two molecules from article PMC6497169 (Nature microbiology, 2017).

B1: DotL(590–659) (domain or fragment)
chain: VEPPPDDYLMKLQKQLASFQSILESGDLSINKAVENEEITLISKALKESTIVEPIERGVAALIAFHGQNE
Turning to B1, the binding result in the experiment with DotN(7–214) was “binds”.

B2: DotL(656–783) (domain or fragment)
chain: GQNEPEPVEDIVEEEVEGALTIFSKLRIDPNAPPILVADKEVFSEPLLPINETRNQMITIERLAGAKDKYAGTVANELIKDFQIATSYPPEERDVIDVQELTGIIRDLSAKISAEREKANKKAAEELT
For the molecule B2, the binding result with IcmW was “binds”.
